# Test results published in the supplement of paper PMC12636428.
# Tested on: Saccharomyces cerevisiae
# Assay: transcriptional activation domain activity (GFP:mCherry ratio, weighted mean of sorted bins, harmonized to initial dataset scale) (arbitrary fluorescence ratio units); higher = stronger transcriptional activation
# Settings: beta-estradiol 1 µM; induction time 4 h
# Method in brief: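 For this assay, yeast diploids with a GFP reporter carried barcoded protein tiles at URA3, each fused to an estradiol-inducible synthetic transcription factor. Induction was a 1:5 dilution into SC with 1 uM beta-estradiol for 4 hours at 30 °C, followed by sorting into 8 bins by GFP:mCherry ratio and barcode sequencing. Tiles under 50 reads were dropped, and activation activity was calculated as the read-weighted mean of bin median fluorescence, averaged across barcodes and linearly mapped onto the initial dataset scale.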
row,Sequence,transcriptional activation domain activity
1,LENTNNNGSNVNAATNDTSASTNNINNNNAICQSASLLNDPLETLDFTKCIFA,46900
2,PGEVSEAEANGDAPKVEAAAKPKKKKKKAARKPKTKEEDGAPAAAPTEEAAPA,10100
3,PCKCHTKRKSSRKSKGGSCHRRANDEAAHVNGLGIADLDVLLGLNGRSSDVDM,44000
4,ALGLLFVCEQIELYPQTARIFGLRLIYVILLLHLFLPFTDSLPWLKTLFSILT,54600
5,DKDEDAGAVEGEGGVVNANGKKTSGDEAGGERKKKQKQKEREKGGEDGAGKKG,47700
6,MVFLLIFIVSTLFFCLFLYLLLPSFFYVIFALLAHIFVFSVSLHRQPLLLYLS,49300
7,IMLVLNWLAVHGLFLVKKKSEKSVYHALHKMPTPPFSDSLRQQCRDRLLACLA,36700
8,RAYQQPILEYCRDAIDKESATTLSDERTVSKDDAEAKYSRVISACISLLASLL,30600
9,TMSTVMVVGSDDKKVKEVGEALKSKLGVKGGGKGSRWSGKFTGVWKDSREGAL,27000
10,MDLGEERYRRLVSYLFFSFLYLHFIFLYFSFLWFMACGSWQWLNNLFFFISSF,63800
11,FIPLQAGIKQLIGRLSLPRHPLSNLNHLIPRHIVFTDCIWLILRQLSTLKHWA,57800
12,AFRWIAAFYGLTLATHFTGTVILVSHIAHHVVQAKCILGHRGGPYFYIMRVLV,61400
13,MGPISFFFLFWRYYRLYCLFFVFFFFSTGLRWHDTLFHFLSFLLLGLPLLKRS,82100
14,FLCIFSPFSRMISCLVYRSLFCSSYITSINLIVSVSKVVRRFIIRIFPLLFTI,51400
15,RTTALGVWFLSIQFFWYALYGALYIWFFFMPWEKLSVLLAFDYFMRLLLCFMF,45700
16,VRYHVKNSPISGWVYEAKHVSDILATNTLLARIVIAKVQDEQRLVHLLQCLPI,68800
17,MVQCAVAECTEEGKSQCGRCKQRFYCSADCQQKDWKVHKKNCKSPAATSAQLS,23100
18,MLVLILTLYYFSNYLKSTHQLLSMNLLSSDDLCGILVRDNIIFSILFTFPKIL,63200
19,LTHGRERSLIWKAKSSLNKWMFLVLRYFALLDLMFTVAVDTNFHVKYNTPFCI,72400
20,TSLESAPVHVPMHCGIQGVVGSLGVLVSASVVQCVRASIARDSEGGMEWMRVE,33600
21,DSEADSEDDDNGAESDKKMPVADKSEHQTGILSKLYKLNVYGEGSFFKPHKDT,45700
22,SVSRDRGAFEWAGDNLMTVFCQPYRLVDPEMWCLLYDVLRFNACCRSIIATPY,63900
23,HPLSQRYVLIMSITRLCIPLYFYGYEDNFIGHETTHWIWILVIYVSLQVLILF,40200
24,MQAGIHNVLFHFRNKWWIQIIGSGLPYFVLLAGRGLMCIFLFLIFRLRRCLCV,67300
25,GYIVFLSMVMIHTDSRLDHLGKRSVLSEENSKNSWQLLVLFLHQLSTYWLLPK,57900

row,Sequence,transcriptional activation domain activity
1,NISTSVYVLLVCFHPLFLLLLLLLLLLLLLYRFVFAFFFISFFFFFLLLLLLL,25000
2,LVVVLAVTKVMLLVLLIISYQILKQLLGIYFKCIHFLIYFFMLPYYGTLLSIL,47500
3,SGGKTMVSGSFAGESGRLQGSGPFGRGGGRESREQAYDNGRAKIARLAHGLRL,22400
4,SRLHARIEYEESSEQFVLAVLGRNGAWVDGVWSGSGSRVPLSSRSQIQIASRV,52800
5,MYSIGVLTWKHDIGFFEDLLWSWCRVCFERYYTNVSPCTKLLSMELLLNCLLG,69100
6,SCMVYSIHNTTILILSFSPSPLNFFFFSSWLLFIFFFFLFLFLFLFLFLFLFL,39900
7,FLYTLHIYDGQEGYHFLFNSFGNGSEWLQWSDGEQWALLYAQNYTMIIWVWYM,15000
8,NTMQFSMNLGNSTVSGPFSGLVNGLTPKGTNMEPSLWASWSYYALWLPTWGTT,52100
9,YAVPNDFVVTGGLLLLRYDRLNELPLGTRANSSVLVCVYRTWIALMRYLLAGP,62800
10,LKKHDVNALVTVICNFLICITMALCVVWDSELLPDCLFRVKLIYTLITLGFLC,63400
11,LFINRLMWLVRSYLTTFFCKSCPGLAKKLIKYVTIQQLPPDVSWDPHFKPRYN,67600
12,SSEGGEENKAEEAELEKADKPKEETTEEKKSEEEKPEEKKPEEKKPEETKAEN,18500
13,MLFFHQDTVVGQLFTRYTALIVLIFKSSSVLVFVLFLFFFFFFWPIRILVSFI,37100
14,LDAVSSFNSSSVKSNFASKVNTQLNLLQHSSSNSNFLDASPYDFNKIFMNNFE,62000
15,MHCIVVSCSLFLWFVFCKYLIYFKNAFTDISVFLGFLFGWFLSLLFHLSIVFG,48500
16,LACIVVCVIVYVVLTLLPLFYRDCPYLTPMSGPLWRFLQAFQFVSIVSFRRIY,41900
17,AKDGELQTKKPRQRKPKAPAATGDADILEVKPKRTRTTRPKVSSYFAEPAAPL,< 6570
18,FLDVSTSYDIGNPPSISDDLLDLSIFTAQNFQSPSIDFRRVKLMHDFLDVSRF,125000
19,MNLYLLCRYMTLVYCFVYMLGNNITKFDCEVWVKALLSFGYIASILSSSLIVL,61200
20,SWFIYSYDKEWIFLWHIPFPYPPIRTPSIPWVLYGLSVRFWSFISLLICNFFC,63300
21,KLRKKQHGSNKDTIPSSQSRDIANDYDRGSTDNNLVTTTSTSSIFHDEDLTFF,44400
22,LPLYNFVRQHLCVFLDRYEHMLTRFLTLGNIMVVSSAVRRGAYWHLLETCQHT,50200
23,HGAPPPPPPPPPPPPPVAGGPPPPPPPPPPGGAPPPPPPPPPPGGGGSAPLPA,44500
24,RKKRRSTRRSRSREESSRRRGDDRRRNHSRDRSTTSRRRSRKSRSPSRDRSSR,32300
25,MSLICIYQTIGTFAQICSWYFEMVHAGLSGSDIAQLARSNVNRIWWYKLLFTT,44500

row,Sequence,transcriptional activation domain activity
1,KPATTTASSAQPSTTASATPGGLFGGGAQSGSSTPAGGLFGAKPAAAPSPAPA,44900
2,RNSSLEEEDQVVAEGEVVGAAEEEGGEGEGREEVVVTEGREDMAVVGMAGMAD,35400
3,HASAAPTATPAAPTVEKAKPKSREASPAKPKSPERRRPASPAPAAAVPEPVAA,32900
4,DNMHVPGRFKDPNFLFYIQTMISSYALPFVRKAAILMHVRYGVELPSIPFECV,75400
5,KKLTRGKGKKSKGKKARSNAKRSKGKGKVTKEDTSDEEDEEEGEEERGEEEEE,12500
6,MVQNWEFFVFFFSFFIFSFCEVYMCAVCGLWCGSPGKLLGLLFLVLLCSLFFF,40300
7,TSAAPAFGTSGFSAAKPATPAQASAFGSPAALGAKASPWGAQNSSSSGTTAGA,31100
8,ETYLFLQDQDESADSHHHDELGSEITLADNKFSYLPPTLEELMEEQDCNNGRS,84700
9,KEREQREQREQRRKEEREREKERERERELRERERERERERQQAREEAERAAMG,15400
10,VVLSVLCSLLNTTLKYNPASWRVPYDHVVFKDSKQILVTYCLQLLLVLILYPI,44500
11,WVMYVIFITVGWYAMVTGQSIVLYSRLHLVVNSIKVLRFVLILICVDVVILHV,67500
12,MVSFFFSLCFSSFSYLLFPHFLSFFLFFSLCCHFFPFVSTFPPILFFIMNVSF,67100
13,MSLFSPSPSLSLYNFKIRFCILLVPLILAFLFLIILISYCLSLFICFSSSLWF,54700
14,HVFPILLRLVGGYALLRKLIDSIEEAYLAYHMVASQTYFMSTSLTFCAILARM,71200
15,MSFRFPTLFFFSLTLFLVSPFWFYLLFSVFFFLISLVFLESHFFCLGSINTLY,39800
16,MGVWFGMAVLFLFLHLGFFLFCYFICLLLDNSFFLSWPLETVRALQMGLQIGG,36700
17,RHYCYIIVLKSLMYESPRIIGFAWKPEEGHFFNKVMYRTFVGLLMLLQVLLVG,55900
18,MSSWVYKYQLMFVFVSKVESGGRIWNVIINRLLICVLLMQMLMILTMGLQYRF,49000
19,ANPLSDSASFLSEENEDDAFGALNYNSLDATTMSAFDNNVDPFNILKSSPAQD,66600
20,YQVYYYYQHFRNDAFGMQCLVYGASLINLLHSILLPKCVYFWVSTYWGNLSAL,60400
21,ATHPDYIDPHNAMDYLSNDGGDSYNLCHFWSNFEIADMDFWRSDAYQAFFDFL,150000
22,FTSIMMTLVSLVQVGLLQFQCRDLLLCGIYIFYCLIKVPYLSLICSATLLVYG,44300
23,KAGGTGAKQEKEPQGEGRETEGNQAKANRRTKGGTARGEGAAGGRRRRKGEES,35000
24,LFLFYACVNMIFWRVFMRISYSCPAHLKFFLTVEKWTELVKMTADAIDWLDAH,47800
